Experimental data as given in patent US8440629B2, “Cyclic receptor-associated protein (RAP) peptides” (Raptor Pharmaceuticals Inc., priority 2007, dated 2013).

How the values were obtained:
Test in all cases: Solid phase binding assay
MAT CR12 = target: T1, MAT CR12 (Homo sapiens, UniProt Q9Y5Y6); conditions: separate set of experiments
T1 construct: termed MAT CR12 (ST14 CR12), amino acids 452-524; made in house; host or cells: E. coli BL21(DE3) CodonPlus-RIPL, pET30(+)a
T1 sequence (Q9Y5Y6 452-524): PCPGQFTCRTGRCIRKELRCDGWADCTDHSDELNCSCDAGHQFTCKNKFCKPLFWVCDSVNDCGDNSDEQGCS

VLDLR CR78 = target: T2, VLDLR CR78 (Homo sapiens, UniProt P98155); conditions: highest ligand concentrations tested
T2 construct: a CR pair from VLDLR (CR78); made in house; host or cells: E. coli BL21(DE3) CodonPlus-RIPL, pET30(+)a

LRP6 CR23 = target: T3, LRP6 CR23 (Homo sapiens, UniProt O75581); conditions: highest ligand concentrations tested
T3 construct: the two CR pairs from LRP6 within the triplet (CR1 and 2, termed CR12, CR2 and 3, termed CR23); made in house; host or cells: E. coli BL21(DE3) CodonPlus-RIPL, pET30(+)a
T3 sequence (O75581 1286-1363 limits assumed): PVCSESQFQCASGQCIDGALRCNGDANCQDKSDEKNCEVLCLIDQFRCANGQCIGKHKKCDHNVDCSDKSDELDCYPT

MAT CR23 = target: T4, MAT CR23 (Homo sapiens, UniProt Q9Y5Y6); conditions: highest ligand concentrations tested
T4 construct: made in house; host or cells: E. coli BL21(DE3) CodonPlus-RIPL, pET30(+)a
T4 sequence (Q9Y5Y6 487-566): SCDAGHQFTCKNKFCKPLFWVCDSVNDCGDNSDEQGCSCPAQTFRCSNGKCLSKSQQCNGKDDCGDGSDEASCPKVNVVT

B1: RAP d3: third domain of human RAP, amino acids 201-319 of mature RAP, bacterially expressed with hexahistidine and S-peptide tags (SEQ ID NO: 92) (protein, listed as Homo sapiens)
chain: LDRLRRVSHQGYSTEAEFEEPRVIDLWDLEQSANLTDKELEAFREELKHFEAKIEKHNHYQKQLEIAHEKLRHAESVGDGERVSRSREKHALLEGRTKELGYTVKKHLQDLSGRISRAR
modifications: hexahistidine and S-peptide tags
**Q.** What does the source list for B1?
**A.** binding (in words) (MAT CR12): undetectable; binding relative to that for LRP1 CR3-5 (VLDLR CR78): less than 5%; binding relative to that for LRP1 CR3-5 (LRP6 CR23): less than 5%; binding relative to that for LRP1 CR3-5 (MAT CR23): less than 5%
